The target in data set [1] is T1, β-bungarotoxin (β-BuTx) (Bungarus multicinctus) (UniProt P00618+P00987). The experiment in a line: fluorescence anisotropy. The following applies: 20 mM HEPES pH 7.4, 150 mM NaCl, 5 mM KCl, 2 mM MgCl2, 2 mM CaCl2, room temperature. Background: Polarisation of emitted light reports the rotation of a fluorescent probe.
For data set [2], the target named is T1, β-bungarotoxin (β-BuTx) (Bungarus multicinctus). The experiment in a line: filter binding. The following applies: 20 mM HEPES pH 7.4, 150 mM NaCl, 5 mM KCl, 2 mM MgCl2, 2 mM CaCl2, room temperature.

The text below walks through data of publication PMC4140777.

One may read the pKd as the negative decadic logarithm of the Kd, by convention in mol/L. High values mean a small Kd, low ones a large Kd.

pKd: −log10 of the molar value.

T1 sequence (P00618 26-145, chain 1 of 2): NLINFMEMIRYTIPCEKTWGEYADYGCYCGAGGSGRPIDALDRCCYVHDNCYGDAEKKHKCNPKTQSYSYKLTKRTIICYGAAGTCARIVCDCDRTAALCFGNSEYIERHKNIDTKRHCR
T1 sequence (P00987 25-85, chain 2 of 2): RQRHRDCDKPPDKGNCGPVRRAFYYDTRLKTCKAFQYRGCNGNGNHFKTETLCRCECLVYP

For “AGCAGCACAGAGGTCAGATGATTAGTCATGTTTGTTTGTCTGGCTTTTTGGGTTTGTGCAGTATTATGAACCCTATGCGTGCTACCGTGAA [βB-20]”, the pKd in data set [1] was 7.08.
Still for that read-out and setting: the figure for “AGCAGCACAGAGGTCAGATGGCAATGCACCTTTGTCTCTTATAGTTTATTTTTTGCCTTCCTATGCGTGCTACCGTGAA [βB-32]” is 6.00.
Take “AGCAGCACAGAGGTCAGATGGTTTTCCCCTTGTCGCTTTTGGTTCGTTCTGCCTCTATCTCCTATGCGTGCTACCGTGAA [βB-1]”: the pKd in data set [1] is 7.18. In data set [2], the binding signal is 45 % bound.
As for “AGCAGCACAGAGGTCAGATGTTTGGTGTGGATCCTGAACATTTATATTCTTTCGTTTTTTCCTATGCGTGCTACCGTGAA [βB-19]”, in data set [1], the pKd is 6.28.
